Assay results published in patent US20210292393A1 (published 2021).
Read-outs that look alike come from different tables or passages of the source.

What was measured:
[1] = target: SARS-CoV-2 spike protein (SARS-CoV-2, UniProt P0DTC2 14-1208)
[2] = target: T1, SARS-CoV-2 spike protein (SARS-CoV-2, UniProt P0DTC2 14-1208); experiment: HT-SPR, Carterra LSA; mAb coupled to chip, antigen injected; 1:1 fit
T1 construct: also called SARS-CoV-2 S protein; antigen of interest

Binder	Kd [1]	koff [1]	kon [1]	Kd [2]	koff [2]	kon [2]
antibody 469 (antibody, V domains shown) VH: QVQLVESGGGVVQPGRSLRLSCAASGFTFSSYGMHWVRQAPGKGLEWVAVIWYDGSNKYYADSVKGRFTISRDNSKNTLYLQMNSLRAEDTAVYYCARDLLSVGWSFDYWGQGTLVTVSS VL: not shown	0.133 nM	8.39e-05 s⁻¹	630000 M⁻¹ s⁻¹			
antibody 462 (antibody, V domains shown) VH: QVQLVESGGGVVQPGRSLRLSCAASGFTFSSYGMHWVRQAPGKGLEWVAVIWYDGNNKYYADSVKGRFTISRDNSKNTLYLQMNSLRAEDTAVYYCAKDPTWFGELPSYYYYGMDVWGQGTTVTVSS VL: not shown	9.31 nM	0.00117 s⁻¹	125000 M⁻¹ s⁻¹			
antibody 500 (antibody, V domains shown, also called mAb 500) VH: QVQLVESGGGVVQPGRSLRLSCAASGFTFSSYAMHWVRQAPGKGLEWVAVISYDGSNKYYADSVKGRFTISRDNSKNTLYLQMNSLRAEDTAVYYCAKSRDGYKLFDIWGQGTMVTVSS VL: not shown				0.43 nM	0.000114 s⁻¹	266000 M⁻¹ s⁻¹
antibody 465 (antibody, V domains shown) VH: QITLKESGPTLVKPTQTLTLTCTFSGFSLSTSGVGVGWIRQPPGKALEWLALIYWDDDKHYSPSLKSRLTITKDTSKNQVVLTMTNMDPVDTATYYCAHMYYDILSGYYYGMDVWGQGTTVTVSS VL: not shown	6.97 nM	6.06e-05 s⁻¹	8700 M⁻¹ s⁻¹			
antibody 502 (antibody, V domains shown) VH: QVQLVQSGAEVKKPGASVKVSCKASGYTFTSYYMHWVRQAPGQGLEWMGIINPSGGSTSYAQKFQGRVTMTRDTATSTVYMELSSLRSEDTAVYYCARGGGQISMIIVVMDDAFDIWGQGTMVTVSS VL: not shown				2.49 nM	0.000269 s⁻¹	108000 M⁻¹ s⁻¹
antibody 501 (antibody, V domains shown) VH: QVQLVQSGAEVKKPGASVKVSCKASGYTFTSYYVHWVRQAPGQSLEWMGVISPSTGSTTYAQNFQGRVTMTRDTSTTTVYMELSSLRSEDTAVYYCARDDYYDSTRYFDLWGRGTLVTVSS VL: QSALTQPASVSGSPGQSISFSCTGTSSDIGAYNYVSWYQQHPGRAPKLMIYDVGNRPSGVSNRFSGSKSGNTASLTISGLQAEDEADYYCSSYTSSSTQVFGTGTKVTVL				8.78 nM	0.000261 s⁻¹	29800 M⁻¹ s⁻¹
antibody 481 (antibody, V domains shown) VH: EVQLVESGGGLIQPGGSLRLSCAASGFTVSSNYMSWVRQAPGKGLEWVSVIYSGGSTFYADSVKGRFTISRDNSKNTLYLQMNSLRAEDTAVYYCAREVAGTYDYWGQGTLVTVSS VL: DIQMTQSPSSVSASVGDRVTITCRASQGISSWLAWYQQKPGKAPKLLIYAASSLQSGVPSRFSGSGSGTDFTLTISSLQPEDFATYYCQQANSFPGGTFGPGTKVDIKR	0.273 nM	2.96e-05 s⁻¹	109000 M⁻¹ s⁻¹			
antibody 468 (antibody, V domains shown) VH: QVQLVESGGGVVQPGRSLRLSCAASGFTFSIYAMHWVRQAPGKGLEWVAVISYDGSNKYYADSVKGRFTISRDNSKNTLYLQMNSLRAEDTAVYYCAGSLPAGSYYYYYGMDVWGQGTTVTVSS VL: SYELTQPPSVSVSPGQTARITCSGDALPKQYAYWYQQKPGQAPVLVIYKDSERPSGIPERFSGSSSGTTVTLTISGVQAEDEADYYCQSADNSGTYVLFGGGTKLTVL	0.463 nM	3.67e-05 s⁻¹	79200 M⁻¹ s⁻¹			
antibody 552 (antibody, V domains shown) VH: QVQLVQSGAEVKKPGSSVKVSCKASGGTFSSYGISWVRQAPGQGLEWMGRIIPILGIANYAQKFQGRVTITADKSTSTAYMELSSLRSEDTAVYYCARAVYAAGDDDYYYYYGMDVWGQGTTVTVSS VL: SYELTQPPSVSVSPGQTARITCSGDALPKQYAYWYQQKPGQAPVVVIYKDSDRPSGIPERFSGSSSGTTVTLTISGVQAEDEADYYCQSADSSGTYQVFGTGTKVSVL				0.0393 nM	1.01e-05 s⁻¹	258000 M⁻¹ s⁻¹
antibody 515 (antibody, V domains shown) VH: EVQLVESGGGLVKPGGSLRLSCAASGFTFSSYSMNWVRQAPGKGLEWVSSISSSSSYIYYADSVKGRFTISRDNAKNSLYLQMNSLRAEDTAVYYCASIAAAGTLYYYYGMDVWGQGTTVTVSS VL: not shown				44.2 nM	0.00134 s⁻¹	30200 M⁻¹ s⁻¹
antibody 458 (antibody, V domains shown) VH: QVQLVESGGGVVQPGRSLRLSCAASEFTFATYAMHWVRQAPGKGLEWVALISQDGSNKHYADSVKGRFTISRDNSKNTLYLQMNSLRAEGTAIYYCARESLEAAGPPFDYWGQGTLVTVSS VL: SYELTQPPSVSVSPGQTATIICSGDKLGEKYASWYQQKPGQSPALVIYQDRKRPSGIPERFSGSNSGNTATLTISGTQAMDEADYYCQAWDSSNSVVFGGGTKLTVP	0.334 nM	8.87e-05 s⁻¹	266000 M⁻¹ s⁻¹			
antibody 535 (antibody, V domains shown) VH: EVQLVESGGGLIQPGGSLRLSCAASGFTVSSNYMSWVRQAPGKGLEWVSVIYSGGSTYYADSVKGRFTISRDNSKNTLYLQMNSLRAEDTAVYYCARDLTEEGDFWSASSYRRYYYYGMDVWGQGTTVTVSS VL: not shown				0.395 nM	4.15e-05 s⁻¹	105000 M⁻¹ s⁻¹
antibody 461 (antibody, V domains shown) VH: EVQLVESGGGLVKPGGSLRLSCAASGFTFSSYSMNWVRQAPGKGLEWVSSISSSSSYIYYADSVKGRFTISRDNAKNSLYLQMNSLRAEDTAVYYCASNPAAGQEAYYYYGMDVWGQGTTVTVSS VL: not shown	3.92 nM	0.000377 s⁻¹	96300 M⁻¹ s⁻¹			
antibody 520 (antibody, V domains shown, also called mAb 520) VH: QVQLVESGGGVVQPGRSLRLSCAASGFTFSSYAMHWGRQAPGKGLEWVAVISYDGSNKYYADSVKGRFTISRDNSKNTLYLQMNSLRAEDTAVYYCARDGGSGWLLVGNWFDPWGQGTLVTVSS VL: QSALTQPASVSGSPGQSITISCTGTSSDVGGYNYVSWYQQHPGKAPKLMIYDVSNRPSGVSNRFSGSKSGNTASLTISGLQAEDEADYYCSSYTSSITLYVFGTGTKVTVL				≤ 0.229 nM	≤ 1e-05 s⁻¹	43600 M⁻¹ s⁻¹
antibody 525 (antibody, V domains shown) VH: QVQLVESGGGVVQPGRSLRLSCAASGFTFSSYAMHWVRQAPGKGLEWVTVISYNGRNKYYADSVKGRFTISRDNSKNTLYLQMNSLRAEDTAVYWCAREGLGAIVVGLDYWGQGTLVIVSS VL: not shown				0.107 nM	3.94e-05 s⁻¹	367000 M⁻¹ s⁻¹
antibody 506 (antibody, V domains shown) VH: QITLKESGPTLVKPTQTLTLTCTFSGFSLSTSGVGVGWIRQPPGKALEWLALIYWDDDKRYSPSLKSRLTITKDTSKNQVVLTMTNMDPVDTATYYCAHHSLSSIFDYWGQGTLVTVSS VL: QSALTQPASVSGSPGQSITISCTGTSSDVGDYNYVSWYQQHPGKAPKLMIYEVSNRPSGVSNRFSGSKSGNTASLTISGLQAEDEADYYCSSYTSSSTVFGGGTKLTVLG				0.523 nM	0.00021 s⁻¹	401000 M⁻¹ s⁻¹
antibody 489 (antibody, V domains shown) VH: QVQLVESGGGVVQPGRSLRLSCAASGFTFSSYAMHWVRQAPGKGLEWVAVISYDGSNKYYADSVKGRFTISRDNSKNTLYLQMNSLRAEDTAVYYCARAGSGNYYNWFDPWGQGTLVTVSS VL: not shown	0.317 nM	4.85e-05 s⁻¹	153000 M⁻¹ s⁻¹			
antibody 513 (antibody, V domains shown) VH: QVQLVESGGGVVQPGRSLRLSCAASGFTFSSYAMHWVRQAPGKGLEWVAVISYDGSNKYYADSVKGRFTISRDNSKNTLYLQMNSLRAEDTAVYYCARAGSGSYYNWFDPWGQGTLVTVSS VL: QSALTQPASVSGSPGQSITISCTGTSSDVGGYNYVSWYQQHPGKAPKLMIYEVSNRPSGVSNRFSGSKSGNTASLTISGLQAEDEADYYCSSYTSSSTPYVFGTGTKVTVL				0.0996 nM	2.62e-05 s⁻¹	263000 M⁻¹ s⁻¹
antibody 518 (antibody, V domains shown) VH: QVQLVESGGGVVQPGRSLRLSCAASGFTFSSYAMHWVRQAPGKGLEWVAVISYDGSNKYYADSVKGRFTISRDNSKNTLYLQMNSLRAEDTAVYYCAKPYSGSYWDAFDIWGQGTMVTVSS VL: not shown				0.0685 nM	2.75e-05 s⁻¹	401000 M⁻¹ s⁻¹
antibody 557 (antibody, V domains shown) VH: QVQLVESGGGVVQPGRSLRLSCAASGFTFSSYAMHWVRQAPGKGLEWVAVISYDGSNKYYADSVKGRFTISRDNSKNTLYLQMNSLRAEDTAVYYCARMYSGSYRGGFDYWGQGTLVTVSS VL: not shown				0.144 nM	3.35e-05 s⁻¹	233000 M⁻¹ s⁻¹
antibody 530 (antibody, V domains shown, also called mAb 530) VH: EVQLVESGGGLVQPGGSLRLSCAASGFTFSSYWMSWVRQAPGKGLEWVANIKQDGSEKYYVDSVKGRFTISRDNAKNSLYLQMNSLRAEDTAVYYCAREPQLWSEYYFDYWGQGTLVTVSS VL: DIQMTQSPSSLSASVGDRVTITCRASQGISSWLAWYQQKPEKAPKSLIYAASSLQSGVPSRFSGSGSGTDFTLTISSLQPEDFATYYCQQYNSYPPTFGQGTRLEIK				2.19 nM	0.000209 s⁻¹	95400 M⁻¹ s⁻¹
antibody 554 (antibody, V domains shown) VH: QVQLVESGGGVVQPGRSLRLSCAASGFTFSSYAMHWVRQAPGKGLEWVAVISYDGSNKYYADSVKGRFTISRDNSKNTLYLQMNSLRAEDTAVYYCARPQGGNYYYYGMDVWGQGTTVTVSS VL: DIQMTQSPSSVSASVGDRVTITCRASQGISSWLAWYQQKPGKAPKLLIYAASSLQSGVPSRFSGSGSGTDFTLTISSLQPEDFATYYCQQANSFPLTFGGGTKVEIK				0.129 nM	3.5e-05 s⁻¹	271000 M⁻¹ s⁻¹
antibody 528 (antibody, V domains shown, also called mAb 528) VH: QVQLVQSGAEVKKPGSSVKVSCKASGGTFNSNSISWVRQAPGQGLEWMGRIIPILDITMYARKFQGRVTISADKSTGTAYMDLSSLRSEDTAVYYCATDRDDSSGDYYYGMDVWGQGTTVTVSS VL: DIQMTQSPSSLSASVGDRVTITCRASLSISNYLNWYQQKPGKAPNLLIYAASTLQSGVPSRFSGSGSGTDFTLTISSLQPEDFATYYCQQTYITRWTFGQGTKVEIK				0.509 nM	0.000285 s⁻¹	560000 M⁻¹ s⁻¹
